US20120027773A1 (AVEO PHARMACEUTICALS, published 2012)

Key:
[1] = target: T1, human wild-type RON (cell surface) (human, UniProt Q04912 25-1400); experiment: cell-based or functional assay
[2] = target: T1, human wild-type RON (cell surface); experiment: cell-based or functional assay; remark: listed apart in the source
[3] = target: T1, human wild-type RON (cell surface); experiment: FACS, 10 ug/ml antibody, PC3 cells, 4 C
Procedure: (§1) Binding to cell surface wild-type RON and delta 160 RON at 4° C. was determined for antibodies 07F01, 12B11, 17F06, 18H09, and 29B06, using FACS. Cells expressing wild-type RON (PC3), and cells expressing delta 160 RON (HT-29), were harvested using cell dissociation buffer (Invitrogen), washed twice with FACS buffer (0.5% BSA PBS) and treated with CytoQ Antibody diluent and FC receptor block (Innovex). Purified antibodies were diluted at a concentration of 10 μg/ml, in FACS buffer. Cells were incubated with 100 μl of antibody mix for one hour, washed with FACS buffer three times, and incubated for 45 minutes with goat anti-mouse PE conjugated antibody (Jackson Immunoresearch Laboratories). Cells were washed three times with FACS buffer, resuspended in 300 μl of FACS buffer and analyzed using a Beckman Coulter Cytomics FC 500 FACS instrument.

[4] = target: T2, delta 160 RON variant (cell surface) (human, UniProt Q04912 25-1400); experiment: FACS, 10 ug/ml antibody, HT-29 cells, 4 C
T2 construct: whole, on cells; Splice variant; also called delta 160 variant
Procedure: as §1

[5] = target: T3, recombinant human RON-ECD/mFc fusion protein (human, UniProt Q04912 25-957); experiment: SPR, Ab captured on anti-mouse IgG, 25 C, AVG
T3 construct: extracellular domain; also called rhRON ECD/mFc; rhRon ECD/mFc; not shown: THXmFC: Thrombin/His tag/Factor Xa-AJ mouse IgG-Fc
Procedure: (§2) The binding affinities and kinetics of binding of antibodies 07F01, 29B06, 17F06, 18H09, and 12B11 to recombinant human RON-ECD/mFc fusion protein (rhRON ECD/mFc) and recombinant human RON SEMA and PSI domains (rhRON SEMA+PSI) (R&D Systems, Inc., Minneapolis, Minn.) were measured by surface plasmon resonance, using a Biacore T100 instrument (GE Healthcare, Piscataway, N.J.).
(§3) Rabbit anti-mouse IgGs (GE Healthcare) were immobilized on carboxymethylated dextran CM4 sensor chips (GE Healthcare) by amine coupling, according to a standard protocol. Analyses were performed at 25° C. and 37° C., using PBS containing 0.05% surfactant P20 as running buffer. The antibodies were captured in individual flow cells at a flow rate of 10 μl/min. Injection time was varied for each antibody to yield an Rmax between 30 and 60 RU. 250 μg/mL mouse Fc were injected at 30 μl/min for 120 seconds to block non-specific binding of antibodies to Fc portion of the protein when needed. Buffer, rhRon ECD/mFc or rhRON SEMA+PSI diluted in running buffer was injected sequentially over a reference surface (no antibody captured) and the active surface (antibody to be tested) for 300 seconds at 60 μl/minute. The dissociation phase was monitored for up to 3600 seconds. The surface was then regenerated with two 60-second injections of 10 mM Glycine-HCl, pH 1.7, at a flow rate of 60 μl/min. The rhRON ECD/mFc or rhRON SEMA+PSI concentration range tested was 0.625 nM to 20 nM.
(§4) Kinetic parameters were determined using the kinetic function of the BIAevaluation software (GE Healthcare) with double reference subtraction. Kinetic parameters for each antibody, kₐ (association rate constant), kd (dissociation rate constant) and KD (equilibrium dissociation constant) were determined.

[6] = target: T3, recombinant human RON-ECD/mFc fusion …; experiment: SPR, Ab captured on anti-mouse IgG, 37 C, n=1
Procedure: as §2, §3, §4

[7] = target: T4, recombinant human RON SEMA and PSI domains (human, UniProt Q04912 25-571); experiment: SPR, Ab captured on anti-mouse IgG, 25 C, AVG
T4 construct: domain: SEMA+PSI; Commercial protein (R&D Systems); also called rhRON SEMA+PSI; hRON SEMA+PSI
Procedure: as §2, §3

[8] = target: T4, recombinant human RON SEMA and PSI …; experiment: SPR, Ab captured on anti-mouse IgG, 37 C, AVG
Procedure: as §2, §3

[9] = target: T4, recombinant human RON SEMA and PSI …; experiment: ECL competition, MSP binding to coated hRON SEMA+PSI; competitor MSP; average
Procedure: (§5) The biochemical neutralization assay measures inhibition of MSP binding to hRON by antibodies in hybridoma supernatants, using electrochemiluminescence (ECL). MA2400 96-well high binding plates (Meso Scale Discovery) were coated with 25 μl of 0.42 μg/mL hRON SEMA+PSI (an N-terminal portion of the ECD of hRON; R&D Systems) in PBS for one hour at room temperature with agitation. The plates were washed four times with PBS+0.1% Tween-20 (PBST), and blocked with 150 μl of charcoal-stripped fetal bovine serum (FBS) (Gibco). The hybridoma supernatant were added and incubated for 45 minutes at room temperature. After incubation, 5 μl of MSP (3 μg/mL) in charcoal stripped FBS was added to each well, and incubated for 45 minutes. The plate was washed four times with PBST, and 25 μl of 1 μg/mL biotinylated anti-MSP antibody (R&D Systems) was added to the plates for one hour at room temperature with agitation. The plates were washed four times with PBST, and incubated with 25 μl of 1 μg/mL ST-streptavidin (Meso Scale Discovery) for one hour at room temperature with agitation. The plates were washed four times with PBST, and 150 μl read buffer (Meso Scale Discovery) was added to each well before the plates were analyzed on a Sector Imager 2400 (Meso Scale Discovery) instrument. Antibodies 07F01, 18H09 and 29B06 each blocked MSP binding to hRON SEMA+PSI in this neutralization assay.
(§6) Antibodies 07F01, 12B11, 17F06, 18H09, and 29B06 were tested for inhibition of MSP binding to hRON SEMA+PSI, as measured by electrochemiluminescence (ECL) assay as described in Example 3. The antibodies (concentration range: 0.006-10 μg/mL) were incubated for 45 minutes at room temperature.

[10] = target: T4, recombinant human RON SEMA and PSI …; experiment: ECL competition, MSP binding to coated hRON SEMA+PSI; competitor MSP; average n=3
Procedure: as §5, §6

[11] = target: T4, recombinant human RON SEMA and PSI …; experiment: ECL competition assay: antibody titrated on plate-coated hRON SEMA+PSI; blocked ligand MSP, detected with biotinylated anti-MSP antibody
Procedure: as §5, §6

[12] = target: T3, recombinant human RON-ECD/mFc fusion …; experiment: SPR, Ab captured on anti-mouse IgG, 37 C, AVG
Procedure: as §2, §3, §4

[13] = target: T3, recombinant human RON-ECD/mFc fusion …; experiment: SPR, Ab captured on anti-mouse IgG, 25 C, AVG; * Outside instrument limit of detection
Procedure: as §2
(§7) Rabbit anti-mouse IgGs (GE Healthcare) were immobilized on carboxymethylated dextran CM4 sensor chips (GE Healthcare) by amine coupling, according to a standard protocol. Analyses were performed at 25° C. and 37° C., using PBS containing 0.05% surfactant P20 as running buffer. The antibodies were captured in individual flow cells at a flow rate of 10 μl/min. Injection time was varied for each antibody to yield an Rmax between 30 and 60 RU. 250 μg/mL mouse Fc were injected at 30 μl/min for 120 seconds to block non-specific binding of antibodies to Fc portion of the protein when needed. […] The dissociation phase was monitored for up to 3600 seconds. […]
as §4

[14] = target: T3, recombinant human RON-ECD/mFc fusion …; experiment: SPR, Ab captured on anti-mouse IgG, 25 C, AVG; * Outside instrument limit of detection; 25 C, AVG of n=3
Procedure: as §2, §7, §4

[15] = target: T4, recombinant human RON SEMA and PSI …; experiment: SPR, Ab captured on anti-human IgG Fc, 25 C
[16] = target: T4, recombinant human RON SEMA and PSI …; experiment: SPR, Ab captured on anti-human IgG Fc, 37 C
[17] = target: T4, recombinant human RON SEMA and PSI …; experiment: SPR, Ab captured on anti-human IgG Fc, 37 C; 37 C, n=1

Binder | Mean IC50 (nM), inhibition of MSP-dependent ERK phosphorylation, T47D cells [1] [nM] | Percent Inhibition of MSP-induced HPAF-II cell migration, antibody 2 ug/ml [2] [%] | PC3 % cell surface binding [3] [%] | HT-29 % cell surface binding [4] [%] | kon [5] [M⁻¹ s⁻¹] | Kd [7] [nM] | koff [7] [s⁻¹] | kon [7] [M⁻¹ s⁻¹] | Kd [8] [nM] | koff [8] [s⁻¹] | kon [8] [M⁻¹ s⁻¹] | Maximum Neutralization (%) [9] [%] | other results
18H09 (antibody, mouse IgG1, V domains shown, Murine hybridoma monoclonal, IgG1/lambda (IGLC1); also called antibody 18H09) VH: EVQLQESGPSLVKPSQTLSLTCYVTGDSITSDYWNWIRKFPGNKLEYMGYISYSGSTYYNPSLKSRISITRDTSKNQFYLRLNSVTTEDTATYYCARTHILTIAYWGQGTLVTVSA VL: QAVVTQESALTTSPGETVTLTCRSSAGAVTTSNFANWVQEKPDHLFTGLIGDTNIRAPGVPARFSGSLIGDKAALTITGAQTEDEAIYFCALWYSNHYWVFGGGTKLTVLG | 0.71 | 107 | 99 | 98.3 | 330000 | 0.0086 | 3.8e-06 | 440000 | 0.22 | 0.00012 | 580000 | 86.9 | Kd [5]: 0.22 nM; koff [5]: 5.7e-05 s⁻¹; Kd [6]: 0.4 nM; koff [6]: 0.0007 s⁻¹; kon [6]: 1.8e+06 M⁻¹ s⁻¹; IC50 [10]: 0.91 nM; IC50 (read off the curve) [11]: ~0.7 nM
17F06 (antibody, mouse IgG2a, V domains shown, Murine hybridoma monoclonal, IgG2a/lambda (IGLC2); also called antibody 17F06) VH: EVKLVESGGGLVKPGASLKLSCAASGFIFSSYGMSWVRQTSDKRLEWVASISSGGGTTYYLDTVKGRFTISRENAKDTLYLQMSGLKSEDTALYYCTRGQWLLKFAYWGQGTLVTVSA VL: QLVLTQSSSASFSLGASAKLTCTLSSQHTTYTIEWYQQLPLKPPKYVMELKKDGSHSTGVGIPDRFSGSSSGADRYLTISNIQPEDEAIYICGVGETIEDQFVYVFGGGTKVTVLG | 0.96 | 70.7 | 99.1 | 99 | 170000 | 0.009 | 1.4e-06 | 190000 | 0.13 | 2.1e-05 | 260000 | 7.9 | Kd [12]: 0.21 nM; koff [12]: 2.4e-05 s⁻¹; kon [12]: 140000 M⁻¹ s⁻¹; Kd [13]: < 0.0588 nM; koff [14]: < 1e-05 s⁻¹
RON6 (antibody, V domains shown) VH: QVQLVQSGPEVKKSGSSVKVSCKASGGTFSSDAITWVRQAPGQGLEWMGGIIPILGMANYAQKFQGRVTITADKSTNTAYMELSSLRSEDTAVYFCARVADYYGLGTYYWYFDLWGRGTLVTVSS VL: not shown |  |  |  |  |  |  |  |  |  |  |  |  | Kd [15]: 1.1 nM; koff [15]: 0.0026 s⁻¹; kon [15]: 2.3e+06 M⁻¹ s⁻¹; Kd [16]: 1 nM; koff [16]: 0.19 s⁻¹; kon [17]: 1.9e+08 M⁻¹ s⁻¹
